In patent US20230287080A1 (published 2023):

T1: NY-ESO-1 peptide on HLA-A*02:01 (human)
T1 peptide: SLLMWITQC


Assays:
[1] = molecular target: T1, NY-ESO-1 peptide on HLA-A*02:01; assay: multimer staining
[2] = molecular target: T1, NY-ESO-1 peptide on HLA-A*02:01; assay: activation reporter or marker
Description: NY7 variant TCRs isolated by the work flow above were then functionally tested for potency and specificity. TCRs were expressed in Jurkat cells using a lentivirus vector, and TCR-expressing Jurkat cells were co-cultured with T2 cells and a varying dose of the NY-ESO-1 peptide. Activation was measured by luminescence using an NFAT-Luciferase reporter.

Binder | binding result [1] | binding result [2]
NY7JSY (TCR, V domains shown) Valpha: QKEVEQNSGPLSVPEGAIASLNCTYSDRGSQSFFWYRQYSGKSPELIMFIYSNGDKEDGRFTAQLNKASQYVSLLIRDSQPSDSATYLCAVMRAGGFKTIFGAGTRLFVKA Vbeta: DSGVTQTPKHLITATGQRVTLRCSPRSGDLSVYWYQQSLDQGLQFLIQYYNGEERAKGNILERFSAQQFPDLHSELNLSSLELGDSALYFCASSVVDGEQYFGPGTRLTVT | recognises | –
NY7 variant, Table A TCR ID 5 (TCR, V domains shown) Valpha: QKEVEQNSGPLSVPEGAIASLNCTYSDRWSQSFFWYRQYSGKSPELIMFIYSNGDKEDGRFTAQLNKASQYVSLLIRDSQPSDSATYLCAVMRAGGFKTIFGAGTRLFVKA Vbeta: DSGVTQTPKHLITATGQRVTLRCSPRSGDLSVYWYQQSLDQGLQFLIQYYNGEERAKGNILERFSAQQFPDLHSELNLSSLELGDSALYFCASSVVDGEQYFGPGTRLTVT | – | recognises
